PMC5881448 (The Journal of General Physiology, 2018)
Where no end group is shown, it is not given here.

Assays:
[1] = target: mEAG1 intrinsic-ligand peptide (mEAG1#696–702), fluorescein-labeled (mouse); assay: fluorescence polarisation
[2] = target: hERG1 intrinsic-ligand peptide (hERG1#857–863), fluorescein-labeled (human) (UniProt Q12809); assay: fluorescence polarisation
[3] = system: zELKΔ740–742 channels; type: cell-based, Danio rerio; conditions: inside-out patches, X. laevis oocytes, with or without MgATP

Chain of UniProt Q12809 (Q12809 whole entry, looked up, tested part not stated): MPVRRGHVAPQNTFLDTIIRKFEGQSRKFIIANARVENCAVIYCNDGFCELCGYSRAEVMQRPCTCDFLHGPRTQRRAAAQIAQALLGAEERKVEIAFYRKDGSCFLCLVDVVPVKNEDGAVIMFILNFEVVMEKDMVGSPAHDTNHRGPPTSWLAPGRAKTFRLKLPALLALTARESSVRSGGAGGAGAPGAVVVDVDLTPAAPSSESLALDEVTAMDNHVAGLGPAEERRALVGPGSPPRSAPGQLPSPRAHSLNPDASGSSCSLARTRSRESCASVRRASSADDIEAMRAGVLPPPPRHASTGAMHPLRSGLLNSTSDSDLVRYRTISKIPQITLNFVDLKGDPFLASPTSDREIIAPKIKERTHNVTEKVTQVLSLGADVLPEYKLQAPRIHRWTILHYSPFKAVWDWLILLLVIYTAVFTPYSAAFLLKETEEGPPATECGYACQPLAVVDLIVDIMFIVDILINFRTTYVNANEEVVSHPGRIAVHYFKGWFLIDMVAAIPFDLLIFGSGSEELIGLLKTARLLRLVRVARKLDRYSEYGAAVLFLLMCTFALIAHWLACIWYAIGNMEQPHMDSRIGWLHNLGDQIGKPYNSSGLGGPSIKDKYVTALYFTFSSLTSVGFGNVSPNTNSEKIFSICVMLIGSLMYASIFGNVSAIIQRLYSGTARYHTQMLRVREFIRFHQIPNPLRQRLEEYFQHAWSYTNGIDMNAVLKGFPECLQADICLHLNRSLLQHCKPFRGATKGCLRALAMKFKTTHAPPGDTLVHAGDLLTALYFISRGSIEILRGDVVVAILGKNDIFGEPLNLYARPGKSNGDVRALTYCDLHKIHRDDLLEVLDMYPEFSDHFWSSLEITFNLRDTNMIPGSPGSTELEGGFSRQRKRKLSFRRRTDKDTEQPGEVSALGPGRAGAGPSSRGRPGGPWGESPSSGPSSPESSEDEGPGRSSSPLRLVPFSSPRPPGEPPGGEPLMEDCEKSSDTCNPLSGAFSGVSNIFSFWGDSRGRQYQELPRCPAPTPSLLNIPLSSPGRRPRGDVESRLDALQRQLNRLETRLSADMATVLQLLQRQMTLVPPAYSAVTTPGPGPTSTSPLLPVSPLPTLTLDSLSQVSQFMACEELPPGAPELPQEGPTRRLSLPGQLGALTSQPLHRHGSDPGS

Row | Kd [1] [µM] | Substance | Kd [2] [µM] | modulation of zELKΔ740–742 channels regardless of MgATP [3]
1 | 85 | MBP–C-linker/CNBHD of zELK channel (Q543–L750), wild type (domain or fragment) |  | 
2 | 37 | MBP–C-linker/CNBHDΔ740–742 of zELK channel (Q543–L750 without Y740–L742) (domain or fragment) | 90 | 
3 |  | hERG1 peptide: intrinsic-ligand peptide from hERG1 channels (#857–863) (EITFNLR; also: fluorescein label, position not given here) |  | did not produce an appreciable amount of modulation
